Reference: publication PMC3667858 (PLoS ONE, 2013)

B1: sdAb-C6 (VHH)
VHH: HVQLVESGGGSVQAGGSLRLSCTYSVYTYSSDSMAWFRQAPGKEREGVAGIYIGSGSTLYADSVKGRFTISQDKAKNTVYLQMNSLKPEDTALYYCAAGGNWYDGVLNVERAFAYWGQGTQVTVSS
notes: also called clone 6; sdAb-6
B2: Alexa Fluor-488-conjugated-sdAb-C6 (VHH)
VHH: B1 VHH
notes: also called AF488-C6; AF488-C6 probe
B3: QDs-C6 probe (VHH)
VHH: B1 VHH
notes: also called QD-sdAb probe; QDs-sdAb

Tests used:
[1] = biological target: T1, FMDV Asia 1 virus-like particles (VLPs) (Foot-and-mouth disease virus serotype …, UniProt A2I7M2); test: SPR; conditions: both partners purified
T1 construct: also called Asia 1 VLPs antigen; recombinant VLPs; copies: + +

[2] = biological target: T2, FMDV Asia 1 virions in infected BHK-21 cells (Foot-and-mouth disease virus serotype …, UniProt A2I7M2, strain); test: immunostaining of cells or tissue; conditions: one partner purified
T2 construct: also called FMD virions; FMD Asia 1 virions; copies: + + +

| Binder | Kd [1] [nM] | koff [1] [s⁻¹] | kon [1] [M⁻¹ s⁻¹] | binding result [2] |
| --- | --- | --- | --- | --- |
| B1 | 0.44 | 0.000703 | 1.6e+06 | – |
| B2 | – | – | – | binds |
| B3 | – | – | – | binds |
